The target in test [1] is T1, cynomolgus monkey CD3 expressed on cyno primary T cells (cynomolgus monkey, UniProt Q95LI5 22-198; Q95LI8 22-171; Q95LI7 23-181).
T1 construct: whole, on cells; CD3 complex on purified cynomolgus monkey CD3 pan T cells; also called cyno CD3
Description: flow cytometry, cyno primary T cells. The method in brief: (§1)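 25 nM Ab in FACS buffer (PBS+2% FBS), 30 min at 4° C on CD3+ cells; flow cytometry MFI normalized to isotype = FOI; cutoff ≥10 for positive.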

Test [2] addresses T2, human CD3 expressed on cells (Jurkat cells; human primary T cells) (human, UniProt P07766 23-207; P04234 22-171; P09693 23-182).
T2 construct: whole, on cells
Description: flow cytometry, Jurkat cells. As for the experimental part:
(§2) Purified antibodies were confirmed to bind CD3 expressed on cells using the CytoFLEX S or LX flow cytometers (Beckman Coulter). Antibodies were diluted to 25 nM in FACS buffer (PBS+2% FBS) and were incubated with CD3-expressing cells for 30 minutes at 4° C. […] The median fluorescence intensity of the binding signal for each antibody was normalized to the isotype control to obtain a fold over isotype value. An antibody with a fold over isotype (FOI) of ≥10 was considered to be positive for binding.

Test [3] deals with T3, cynomolgus monkey CD3 expressed on primary T cells (cynomolgus monkey, UniProt Q95LI5 22-198; Q95LI8 22-171; Q95LI7 23-181).
T3 construct: whole, on cells; CD3 complex on purified cynomolgus monkey T cells; also called cyno CD3
Description: flow cytometry, 25 nM, cyno primary T cells. In a few lines:
as §1

Test [4] concerns the target T4, human CD3 expressed on cells (human, UniProt P07766 23-207; P04234 22-171; P09693 23-182).
T4 construct: whole, on cells; CD3 complex on Jurkat cells and on human primary T cells
The test is described as follows: flow cytometry, 25 nM. The method in brief:
as §1

Test [5] addresses T4, human CD3 expressed on cells. Description: flow cytometry, 25 nM, Jurkat cells (human primary T cells in c4 also <10). As for the experimental part:
as §2

T2 sequence (P07766 23-207, chain 1 of 3): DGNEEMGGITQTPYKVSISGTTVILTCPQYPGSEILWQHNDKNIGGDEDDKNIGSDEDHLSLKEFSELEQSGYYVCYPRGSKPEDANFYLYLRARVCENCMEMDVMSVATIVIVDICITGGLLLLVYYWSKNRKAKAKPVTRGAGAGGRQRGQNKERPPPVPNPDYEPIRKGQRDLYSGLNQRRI
T2 sequence (P04234 22-171, chain 2 of 3): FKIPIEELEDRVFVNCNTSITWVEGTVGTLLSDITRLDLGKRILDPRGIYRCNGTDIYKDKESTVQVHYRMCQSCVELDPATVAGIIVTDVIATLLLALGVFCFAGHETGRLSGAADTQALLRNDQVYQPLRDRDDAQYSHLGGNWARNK
T2 sequence (P09693 23-182, chain 3 of 3): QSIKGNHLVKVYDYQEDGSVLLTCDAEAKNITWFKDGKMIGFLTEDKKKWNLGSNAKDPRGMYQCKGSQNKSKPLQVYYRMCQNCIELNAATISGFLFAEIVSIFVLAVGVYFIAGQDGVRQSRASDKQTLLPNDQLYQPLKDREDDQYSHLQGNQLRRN
T4 sequence (P07766 23-207, chain 1 of 3): as the sequence (P07766 23-207, chain 1 of 3) above
T4 sequence (P04234 22-171, chain 2 of 3): as the sequence (P04234 22-171, chain 2 of 3) above
T4 sequence (P09693 23-182, chain 3 of 3): as the sequence (P09693 23-182, chain 3 of 3) above
T3 sequence (Q95LI5 22-198, chain 1 of 3): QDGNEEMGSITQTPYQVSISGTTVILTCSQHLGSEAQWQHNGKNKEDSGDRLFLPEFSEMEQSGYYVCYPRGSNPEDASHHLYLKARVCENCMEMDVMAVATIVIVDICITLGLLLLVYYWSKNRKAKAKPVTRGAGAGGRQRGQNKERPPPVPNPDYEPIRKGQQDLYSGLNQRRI
T3 sequence (Q95LI8 22-171, chain 2 of 3): as the sequence (P04234 22-171, chain 2 of 3) above, with I5V, N15K, I20V, S32T, D33N, I34N, T64A, S74N, V83L, H141R counted along it
T3 sequence (Q95LI7 23-181, chain 3 of 3): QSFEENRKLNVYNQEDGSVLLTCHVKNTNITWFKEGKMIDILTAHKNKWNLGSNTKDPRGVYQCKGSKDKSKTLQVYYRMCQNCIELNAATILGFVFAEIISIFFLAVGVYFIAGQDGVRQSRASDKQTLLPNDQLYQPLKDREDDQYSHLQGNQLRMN
T1 sequence (Q95LI5 22-198, chain 1 of 3): as the sequence (Q95LI5 22-198, chain 1 of 3) above
T1 sequence (Q95LI8 22-171, chain 2 of 3): as the sequence (P04234 22-171, chain 2 of 3) above, with I5V, N15K, I20V, S32T, D33N, I34N, T64A, S74N, V83L, H141R counted along it
T1 sequence (Q95LI7 23-181, chain 3 of 3): as the sequence (Q95LI7 23-181, chain 3 of 3) above

B1: mAb 182 (antibody, V domains shown)
VH: QVQLVQSGAGMKKPGASVRVSCKASGYNFIDYHIHWVRQAPGQGLEWMGWINPKSGRTMSAQKFQGRVTMTRDTSITAAYMELNRLRSDDSAIYYCARVTQLVFDHWGQGTLVTVSL
VL: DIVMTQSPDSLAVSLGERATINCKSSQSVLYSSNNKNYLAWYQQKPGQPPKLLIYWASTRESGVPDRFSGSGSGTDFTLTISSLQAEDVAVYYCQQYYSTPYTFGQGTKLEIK
notes: VH/VL only
As to B1, the binding result in test [1] and in test [2] was “no binding (tested: FOI <10 (FOI >=10 = positive); 25 nM)” each time.

B2: mAb 107 (antibody, V domains shown)
VH: QVQLQESGPGLVKPSETLSLTCTVSGGSISSYCWSWIRQPPGKGLEWIGYIYNIGSTNFNPSLKSRVTISVDTSKNQFSLKLNSVTAADTAVYYCARGGLYSGNGGRFDPWGRGTLVTVSS
VL: EIVLTQSPGTLSLSPGQTATLSCRASQGVRSNYLAWYQQKPGQAPRLLIYGASSRATGIPVRFSGSGSGTGFTLTMSRLEPEDFAVYYCQQYGSSPWTFGQGSKVEIK
Consider B2, for which the binding result in test [3] and in test [5] was “no binding (tested: FOI >=10 = positive)” throughout. The “Human primary T Cell Binding (FOI)” value in test [4] turned out to be 0.743 FOI.

B3: mAb 147 (antibody, V domains shown)
VH: QVQLVQSGAEVKKPGASVKVSCKASGYTFTAYHTHWVRQAPGQGLEWMGWIYPKSGRTTYTQKFQGRVTMTRDTSISTVYMELSRLKSDDTAVYYCARVGALLFDYWGQGTLVTVSS
VL: not shown
As to B3, the binding result in test [3] and in test [5] was “no binding (tested: FOI >=10 = positive)” each time. Moreover, the “Human primary T Cell Binding (FOI)” value in test [4] was 1.58 FOI.

B4: mAb 148 (antibody, V domains shown)
VH: QVQLVQSGAEVKKPGASVKVSCKASGYTFTAYHTHWVRQAPGQGLEWMGWIYPKSGRTTYTQKFQGRVTMTRDTSISTVYMELSRLKSDDTAVYYCARVGALLFDYWGQGTLVTVSS
VL: EIVLTQSPATLSLSPGERATLSCRASQSVSSYLAWYQQKPGQAPRLLIYDASNRATGIPARFSGSGSGTDFTLTISSLEPEDFAVYYCQQRSNWPFTFGPGTKVDIK
In the case of B4, the binding result in test [3] and in test [5] was “no binding (tested: FOI >=10 = positive)” each time. For the same molecule, the “Human primary T Cell Binding (FOI)” value in test [4] stood at 1.44 FOI.

B5: mAb 149 (antibody, V domains shown)
VH: QVQLVQSGAEVKKPGASVKVSCKASGYTFTAYHTHWVRQAPGQGLEWMGWIYPKSGRTTYTQKFQGRVTMTRDTSISTVYMELSRLKSDDTAVYYCARVGALLFDYWGQGTLVTVSS
VL: not shown
Turning to B5, the binding result in test [3] and in test [5] was “no binding (tested: FOI >=10 = positive)” in each case. Besides, the “Human primary T Cell Binding (FOI)” value in test [4] was determined as 1.45 FOI.

B6: mAb 151 (antibody, V domains shown)
VH: QVQLVQSGAEVKKPGASVKVSCKASGYTFTAYHTHWVRQAPGQGLEWMGWIYPKSGRTTYTQKFQGRVTMTRDTSISTVYMELSRLKSDDTAVYYCARVGALLFDYWGQGTLVTVSS
VL: DIQMTQSPSSLSASVGDRVTITCRASQGIRNDLGWYQQKPGKAPKCLIYAASNLQSGVPSRFSGSGSGTEFTLTISSLQPEDFATYYCLQHNSYPRTFGQGTKVDVK
Regarding B6, the binding result in test [3] and in test [5] was “no binding (tested: FOI >=10 = positive)” in each case. Also, the “Human primary T Cell Binding (FOI)” value in test [4] worked out at 1.36 FOI.

B7: mAb 150 (antibody, V domains shown)
VH: QVQLVQSGAEVKKPGASVKVSCKASGYTFTAYHTHWVRQAPGQGLEWMGWIYPKSGRTTYTQKFQGRVTMTRDTSISTVYMELSRLKSDDTAVYYCARVGALLFDYWGQGTLVTVSS
VL: EIVLTQSPATLSLSPGERATLSCRASQSVSSYLAWYQQKPGQAPRLLIYDASNRATGIPARFSGSGSGTDFTLTISSLEPEDFAVYYCQQRSNWPLTFGGGTKVEIK
Take B7: the binding result in test [3] and in test [5] was “no binding (tested: FOI >=10 = positive)” in each case. Further, the “Human primary T Cell Binding (FOI)” value in test [4] was determined as 1.68 FOI.

B8: mAb 183 (antibody, V domains shown)
VH: QVQLVQSGAEVKKPGASVRVSCKSSGYTFTGYYIHWVRQAPGQGLEWMGWINPKSGRTSYAEKFQGSITMTRDTSINTAYMELTKLRSDDTAVYYCERMGELLLFDYWGQGTLVTVSS
VL: not shown
notes: VH/VL only
On to B8, for which the binding result in test [1] and in test [2] was “no binding (tested: FOI <10 (FOI >=10 = positive); 25 nM)” each time.

B9: mAb 168 (antibody, V domains shown)
VH: EVQLVQSGAEVKKPGESLKISCKGSGYIFTSYWIGWVRQMPGKGLEWMGIIYPGDSDTRYSPSFQGQVTISADKSISTAYLQWSSLKASDTAMYYCARRNYYYYMDVWGKGTTVTVSS
VL: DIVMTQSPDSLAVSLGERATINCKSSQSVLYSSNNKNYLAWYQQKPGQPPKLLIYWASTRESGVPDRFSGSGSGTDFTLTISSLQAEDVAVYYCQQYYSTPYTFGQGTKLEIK
In the case of B9, the binding result in test [3] and in test [5] was “no binding (tested: FOI >=10 = positive)” each time. In addition, in test [4], the “Human primary T Cell Binding (FOI)” value is 1.48 FOI.

B10: mAb 135 (antibody, V domains shown)
VH: EVQLVESGGGLVKTGGSLRLSCVASGFSFKKAWMNWVRQAPGKGLEWVGRIKRNSDGGTTDYAAPVKGRFTLSRDDSKNTLYLQMNSLKTEDTAVYYCTTLDSSSWYVGYYYMDVWGKGTTVTVSS
VL: not shown
Regarding B10, the binding result in test [3] and in test [5] was “no binding (tested: FOI >=10 = positive)” each time. The “Human primary T Cell Binding (FOI)” value in test [4] stood at 0.821 FOI.

B11: mAb 138 (antibody, V domains shown)
VH: QVLLVQSGPEVKKPGASVKVSCKASGYTFTDYYLHWVRQAPGQGLDWMGWINPKSGGTRNAQKFQGRVTMTRDTSISTAYMDLTRLRSDDTAVYYCARVGGELLFDYWGQGTLVTVSS
VL: DIVMTQSPLSLSVTPGEPASISCRSSQSLLHSDGYNYLDWFLQKPGQSPHLLIFLGSNRASGVPDRFSGSGSGTDFTLKISRVEAEDVGIYYCMQALQTPLTFGGGTKVEIK
With B11, the binding result in test [3] and in test [5] was “no binding (tested: FOI >=10 = positive)” throughout. In test [4], the “Human primary T Cell Binding (FOI)” value was determined as 0.796 FOI.

B12: mAb 124 (antibody, V domains shown)
VH: EVQVVESGGDLVQPGGSLRLSCAASGFTFSTYAMTWVRQAPGKGLEWISTISGSGHNTYYADSVKGRFTISRGNSKNTLFLQMNSLRAEDTAVYYCAKENCGGDCLYYMDVWGKGTTVTVSS
VL: DIQMTQSPSSLSASVGDRVTITCRASQSISNYLNWYQQKSGKAPKLLIYFASSLQSGVPSRFGGSGAGTDFTLTISSLQPEDFATYSCQQSYSTPLTFGGGTKVEIK
Consider B12, for which the binding result in test [3] and in test [5] was “no binding (tested: FOI >=10 = positive)” each time. Also, the “Human primary T Cell Binding (FOI)” value in test [4] was 0.835 FOI.

B13: mAb 108 (antibody, V domains shown)
VH: QVQLVESGGGVVQPGRSLRLSCAASGFTFSSYGMHWVRQAPGKGLEWVAVIWYDGSNKYYEDSVKGRFTISRDNSKNTLHLQMNSLRVEDTAVYYCARGLEFDYWGQGTLVTVSS
VL: DIVMTQTPLSSPVTLGQPASISCRSSQSLVHSDGITYLNWLQQRPGQPPRLLIYKISNRFSGVPDRFSGSGSGTDFTLKISRVEAEDVGVYYCMQATQFPWTFGQGTKVEIK
As for B13, the binding result in test [3] and in test [5] was “no binding (tested: FOI >=10 = positive)” in each case. In addition, in test [4], the “Human primary T Cell Binding (FOI)” value amounted to 0.772 FOI.

B14: mAb 139 (antibody, V domains shown)
VH: QVQLVESGGGVVQPGRSLRLSCAASGFTFSSYAMHWVRQAPGKGLEWVAVIWFDGTNKYYTDSVRGRFTISRDNSKNTLYLQMNSLRAEDTAVYYCATERGITETTRGFDYWGQGTLVTVSS
VL: DIQMTQSPSSLSASVGDRVTITCRTSQGIGNDLDWYQQNPGKAPKRLIYATSNLQSGVPSRFSGSGSGTEFTLTISGLQPEDFTTYYCLRHNSYPYTFGQGTKLEIT
As to B14, the binding result in test [3] and in test [5] was “no binding (tested: FOI >=10 = positive)” throughout. The “Human primary T Cell Binding (FOI)” value in test [4] is 0.678 FOI.

B15: mAb 181 (antibody, V domains shown)
VH: QVQLVQSGADMKKPGASVKVSCKASGYTFTDYHIHWVRQAPGQGLEWMGWINPKSGRTMFAQNFQDRVTMTRDTSISTAYMELNRLRSDDSAVYYCARVTQLVFDHWGQGTLVTVSF
VL: AIQMTQSPSSLSASVGDRVTITCRASQGIRNDLGWYQQKPGKAPKLLIYAASSLQSGVPSRFSGSGSGTDFTLTISSLQPEDFATYYCLQDYNYMYTFGQGTKLEIK
notes: VH/VL only
In the case of B15, the binding result in test [1] and in test [2] was “no binding (tested: FOI <10 (FOI >=10 = positive); 25 nM)” throughout.

The record behind these values is patent US20230295310A1 (ABCELLERA BIOLOGICS, published 2023).
